Laboratory results: patent publication US20240301054A1, “TIM-3 INHIBITORS AND USES THEREOF” (Novartis AG, priority 2019, published 2024)

Biological target: T1, interaction between TIM-3 and Galectin-9 (Homo sapiens, UniProt Q8TDQ0)
T1 construct: purchased R&D Systems
Assay: Plate-based (MesoScale) competition assay of the TIM-3/Galectin-9 interaction
Assay type: binding
Conditions: TIM-3 fusion protein coated at 2 μg/ml; SULFOTag Galectin-9 100 nM; FIG. 1
Protocol: TIM-3 fusion protein (R&D Systems) was coated on a standard MesoScale 96 well plate (Meso Scale Discovery) at 2 μg/ml in PBS (Phosphate Buffered Saline) and incubated for six hours at room temperature. The plate was washed three times with PBST (PBS buffer containing 0.05% Tween-20) and blocked with PBS containing 5% Probumin (Millipore) overnight at 4° C. After incubation, the plate was washed three times with PBST and unlabeled antibody (F38-2E2 (BioLegend); MBG453; MBG453 F(ab′)2; MBG453 F(ab); or control recombinant human Galectin-9 protein) diluted in Assay Diluent (2% Probumin, 0.1% Tween-20, 0.1% Triton X-100 (Sigma) with 10% StabilGuard (SurModics)), was added in serial dilutions to the plate and incubated for one hour on an orbital shaker at room temperature. The plate was then washed three times with PBST, and Galectin-9 labeled with MSD SULFOTag (Meso Scale Discovery) as per manufacturer's instructions, diluted in Assay Diluent to 100 nM, was added to the plate for one hour at room temperature on an orbital shaker. The plate was again washed three times with PBST, and Read Buffer T (1×) was added to the plate. The plate was read on MA600 Imager, and competition was assessed as a measure of the ability of the antibody to block Ga19-SULFOTag signal to TIM-3 receptor.

B1: control Galectin-9 protein: control recombinant human Galectin-9 protein, unlabeled (protein)
chain: AFSGSQAPYLSPAVPFSGTIQGGLQDGLQITVNGTVLSSSGTRFAVNFQTGFSGNDIAFHFNPRFEDGGYVVCNTRQNGSWGPEERKTHMPFQKGMPFDLCFLVQSSDFKVMVNGILFVQYFHRVPFHRVDTISVNGSVQLSYISFQPPGVWPANPAPITQTVIHTVQSAPGQMFSTPAIPPMMYPHPAYPMPFITTILGGLYPSKSILLSGTVLPSAQRFHINLCSGNHIAFHLNPRFDENAVVRNTQIDNSWGSEERSLPRKMPFVRGQSFSVWILCEAHCLKVAVDGQHLFEYYHRLRNLPTINRLEVGGDIQLTHVQT
ability of the antibody to block Ga19-SULFOTag signal to TIM-3 receptor (interaction between TIM-3 and Galectin-9): did not
